Data published in patent US20020192785A1 (ONYX PHARMACEUTICALS, published 2002).

Tests used:
[1] = target: RhoA with bound [3H]-GDP or GTPγ[35S] (UniProt P61586 1-193, limits assumed); assay: cell-based or functional assay
[2] = target: T1, EE-K-Ras (UniProt P01116-2 1-188); assay: complex formation assay; format for K-Ras not described
T1 construct: Named EE-K-Ras only for the GDP dissociation assay; the result on physical association says 'K-Ras' and its format is not described; not shown: EE (glu-glu) tag

[3] = target: GST-Rac1 (UniProt P63000 1-192); assay: pull-down on GSH agarose (nucleotide depleted or GDP state), anti glu-glu immunoblot
Protocol: (§1) Comparison of p115 stimulated GDP and GTPγ`S dissociation from RhoA. Increasing amounts of glu-glu tagged •N-p115 (0, 0.02, 0.075, 0.02, 0.4, 1.0 μM) were incubated with 0.3 μM RhoA with bound [³H]-GDP or GTP`[³⁵S] for 10 minutes, and the amount of nucleotide remaining bound to RhoA was determined as described in Hart et al. (39). Specificity of •N-p115 stimulated GDP dissociation. Increasing amounts of •N-p115 (0, 0.25, 0.5, 1.0, 2.0 μM) were incubated for 5 minutes with 2.0 μM GST-RhoA, GST-Rac1, GST-Cdc42Hs or EE-K-Ras prebound with [³H]-GDP and analysed as described in A. Western analysis of complex formation. One μg of glu-glu tagged •N-p115 was incubated with 4 μg of the nucleotide depleted or GDP states of baculovirus expressed GST-Rho, GST-Rac or GST-Cdc42Hs coupled to GSH agarose as described in Hart et al. (18). Proteins, which were recovered on the washed GSH beads, were analsed by SDS-PAGE and immunoblotting. The blot was probed with an affinity purified anti glu-glu monoclonal antibody. 100 ngs of glu-glu tagged •N-p115 was used as a positive control. Kinetic analysis of p115-catalyzed GEF activity on RhoA. […] The level of GTP incorporated onto Rho/min/pmol of •N-p115 was measured as GST-RhoA[`³²P]GTP bound to nitrocellulose filters.

[4] = target: T2, GST-Cdc42Hs (UniProt P60953 1-191); assay: as above
T2 construct: Baculovirus expressed; not shown: glutathione S-transferase (GST) fusion partner
Protocol: as §1

Chain of RhoA with bound [3H]-GDP or GTPγ[35S] (P61586 whole entry): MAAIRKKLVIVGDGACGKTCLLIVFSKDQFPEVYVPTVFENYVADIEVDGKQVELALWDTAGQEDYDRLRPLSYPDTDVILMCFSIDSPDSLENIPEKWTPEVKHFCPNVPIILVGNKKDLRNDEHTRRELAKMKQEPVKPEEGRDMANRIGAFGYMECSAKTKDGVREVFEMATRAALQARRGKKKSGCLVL
T2 sequence (P60953 whole entry, the tested form may be a part): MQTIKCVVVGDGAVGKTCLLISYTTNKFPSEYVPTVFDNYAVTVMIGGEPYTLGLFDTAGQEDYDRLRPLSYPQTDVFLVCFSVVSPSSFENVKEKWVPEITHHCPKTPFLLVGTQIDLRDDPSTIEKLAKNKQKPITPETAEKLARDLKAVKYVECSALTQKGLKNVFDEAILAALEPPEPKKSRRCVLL

B1: glu-glu tagged •N-p115 (amino acids 249-912 of human p115 Rho-GEF) (other, not shown: small tags and cut ends)
chain: VMGNRRSDDPPKTKKGLSSILDAARWNRGEPQVPDFRHLKAEVDAEKPGATDRKGGVGMPSRDRNIGAPGQDTPGVSLHPLSLDSPDREPGADAPLELGDSSPQGPMSLESLAPPESTDEGAETESPEPGDEGEPGRSGLELEPEEPPGWRELVPPDTLHSLPKSQVKRQEVISELLVTEAAHVRMLRVLHDLFFQPMAECLFFPLEELQNIFPSLDELIEVHSLFLDRLMKRRQESGYLIEEIGDVLLARFDGAEGSWFQKISSRFCSRQSFALEQLKAKQRKDPRFCAFVQEAESRPRCRRLQLKDMIPTEMQRLTKYPLLLQSIGQNTEEPTEREKVELAAECCREILHHVNQAVRDMEDLLRLKDYQRRLDLSHLRQSSDPMLSEFKNLDITKKKLVHEGPLTWRVTKDKAVEVHVLLLDDLLLLLQRQDERLLLKSHSRTLTPTPDGKTMLRPVLRLTSAMTREVATDHKAFYVLFTWDQEAQIYELVAQTVSERKNWCALITETAGSLKVPAPASRPKPRPRPSSTREPLLSSSENGNGGRETSPADARTERILSDLLPFCRPGPEGQLAATALRKVLSLKQLLFPAEEDNGAGPPRDGDGVPGGGPLSPARTQEIQENLLSLEETMKQLEELEEEFCRLRPLLSQLGGNSVPQPGCT
notes: Expressed in the baculovirus/Sf9 system and purified on anti-glu-glu Sepharose; also called N-terminal truncated version of p115
**Q.** What does the source list for B1?
**A.** stimulation of the intrinsic dissociation of GDP from RhoA [1]: 10 fold; binding result [2]: no binding; binding result [3]: no binding; binding result [4]: no binding
